# Test results reported in PMC3965382.
# B1: wild-type coronin 1, HA-tagged, O89053 K20A; R69A; K355A; E102A (protein)
# chain: MSRQVVRSSKFRHVFGQPAAADQCYEDVRVSQTTWDSGFCAVNPKFMALICEASGGGAFLVLPLGKTGAVDKNVPLVCGHTAPVLDIAWCPHNDNVIASGSADCTVMVWEIPDGGLVLPLREPVITLEGHTKRVGIVAWHPTAQNVLLSAGCDNVILVWDVGTGAAVLTLGPDVHPDTIYSVDWSRDGALICTSCRDKRVRVIEPRKGTVVAEKDRPHEGTRPVHAVFVSEGKILTTGFSRMSERQVALWDTKHLEEPLSLQELDTSSGVLLPFFDPDTNIVYLCGKGDSSIRYFEITSEAPFLHYLSMFSSKESQRGMGYMPKRGLEVNKCEIARFYKLHERKCEPIAMTVPRASDLFQEDLYPPTAGPDPALTAEEWLGGRDAGPLLISLKDGYVPPKSRELRVNRGLDSARRRATPEPSGTPSSDTVSRLEEDVRNLNAIVQKLQERLDRLEETVQAK
# Molecular target: T1, purified Gαs, P63092
# T1 chain: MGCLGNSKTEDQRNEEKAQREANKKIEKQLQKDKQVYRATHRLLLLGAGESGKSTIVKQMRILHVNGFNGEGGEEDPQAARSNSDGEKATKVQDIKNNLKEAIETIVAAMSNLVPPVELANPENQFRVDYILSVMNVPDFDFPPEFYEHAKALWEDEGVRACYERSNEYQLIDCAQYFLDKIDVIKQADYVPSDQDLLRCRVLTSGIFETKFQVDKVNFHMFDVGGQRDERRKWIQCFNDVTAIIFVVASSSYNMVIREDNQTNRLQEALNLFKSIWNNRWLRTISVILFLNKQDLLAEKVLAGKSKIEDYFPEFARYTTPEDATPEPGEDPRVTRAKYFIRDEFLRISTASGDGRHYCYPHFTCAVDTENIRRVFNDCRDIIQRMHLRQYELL
# Test: SPR
# Settings: chain shown with the change, read off a plot
binder,measurement,setting,value
B1,response,"500 nM coronin 1 injected over immobilized Gαs, parent: est. 120",25 RU
same,response,"1000 nM coronin 1 injected over immobilized Gαs, parent: est. 400",76 RU
